Test results taken from patent publication US20120270800A1.
pKd: −log10 of the molar value.

Biological target: KIX
Test: fluorescence polarization

pKd: 7.05
Substance: MLL WT
